Test [1] concerns CEACAM5-negative DLD1 cells. The test can be described thus: In vitro cytotoxicity test using CEA-V2122 and anticancer agent-labeled modified biotin (Cell Counting Kit-8). The class given is cell-based, human. Conditions: complex of CEA-V2122 and Compound 5, molar ratio 1:2; 1.0E-11 to 6.0E-07 final molar concentration; 48 hours; FIG. 8. The method, then: (§1) A cytotoxicity test was carried out using an anticancer agent-labeled modified biotin. The anticancer agent-labeled modified biotin is a compound described as Compound 5. For the assay, first, CEACAM5-positive MKN45 cells and CEACAM5-negative DLD1 cells were seeded on a 96-well plate for cell culture, so that the cell count became 5×10^3 cells/well and the amount of the culture solution became 50 μL/well, and thereafter, the cells were cultured overnight. A solution containing a complex of CEA-V2122 and a […] modified biotin was prepared by mixing CEA-V2122 and Compound 5 to a molar ratio of 1:2, and then incubating the mixture at room temperature for 10 minutes. […]
(§2) To the cells that had been cultured overnight, the complex serial dilution solutions were added in an amount of 50 μL/well to each well of the plate to the final molar concentration (1.0E-11, 3.0E-11, 9.1E-11, 2.7E-10, 8.2E-10, 2.5E-09, 7.4E-09, 2.2E-08, 6.7E-08, 2.0E-07, and 6.0E-07). […] The dosage and administration were determined by the instruction manuals included with the kit, and after the addition of the reagent, the mixture was incubated for 1.5 hours at 37° C. in a CO2 incubator. Thereafter, the absorbance at 450 nm was measured, and a mean value was then calculated, followed by background collection. […]
In general terms: Tetrazolium assays rely on reduction of a dye to a coloured formazan, in cell work by metabolically active cells.

Test [2] relates to CEACAM5-positive MKN45 cells. The description is as above. The class given is cell-based, human. Conditions: complex of CEA-V2122 and Compound 5, molar ratio 1:2; 1.0E-11 to 6.0E-07 final molar concentration; 48 hours; FIG. 8. As to the method: as §1, §2
Test [3] concerns the target T1, Recombinant Human CEACAM-5/CD66e Protein, CF (R & D SYSTEMS) (human, UniProt P06731 35-685).
T1 construct: Bought recombinant protein, immobilized on a CM5 chip by amine coupling (279 RU); also called antigen CEACAM5
T1 sequence (looked up): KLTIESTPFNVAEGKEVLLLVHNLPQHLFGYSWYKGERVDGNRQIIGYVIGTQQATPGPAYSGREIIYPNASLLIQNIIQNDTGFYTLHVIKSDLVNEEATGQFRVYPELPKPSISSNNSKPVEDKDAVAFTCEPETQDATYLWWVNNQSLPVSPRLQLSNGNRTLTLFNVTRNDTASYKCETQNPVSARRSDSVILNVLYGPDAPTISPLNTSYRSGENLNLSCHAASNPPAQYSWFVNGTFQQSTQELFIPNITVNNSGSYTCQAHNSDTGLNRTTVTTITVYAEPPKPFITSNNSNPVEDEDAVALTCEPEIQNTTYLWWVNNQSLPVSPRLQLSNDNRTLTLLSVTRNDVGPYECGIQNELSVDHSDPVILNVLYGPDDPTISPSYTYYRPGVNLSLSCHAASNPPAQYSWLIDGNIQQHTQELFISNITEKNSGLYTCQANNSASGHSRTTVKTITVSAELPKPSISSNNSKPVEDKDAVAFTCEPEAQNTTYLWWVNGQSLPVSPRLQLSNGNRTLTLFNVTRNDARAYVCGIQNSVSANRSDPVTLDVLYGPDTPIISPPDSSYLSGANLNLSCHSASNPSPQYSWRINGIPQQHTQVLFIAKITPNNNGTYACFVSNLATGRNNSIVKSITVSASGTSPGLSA
The test can be described thus: SPR, Biacore T200; CEACAM5 immobilized on CM5 chip, CEA-V2122 as analyte; single-cycle kinetics, bivalent analysis fit, KD=kd1/ka1. As to the method: (§3) The affinity of CEA-V2122 for the antigen CEACAM5 was evaluated using a surface plasmon resonance (SPR) measuring device, Biacore T200 (GE Healthcare Life Sciences). Specifically, Recombinant Human CEACAM-5/CD66e Protein, CF (R & D SYSTEMS) was immobilized on Sensor Chip CM5 (GE Healthcare Life Sciences) using an amine-coupling kit (GE Healthcare Lite Sciences). The final amount of the ligand immobilized was 279 RU. Moreover, about the purified CEA-V2122, two-fold serial dilutions from 1E-08 to 6.25E-10 M were prepared as analytes. Regarding interaction analysis, data were obtained by single-cycle kinetics analysis.
(In general: Surface plasmon resonance follows binding to a sensor surface in real time, without labels.)

The target in test [4] is T2, CEACAM5 (Homo sapiens, UniProt P06731).
T2 construct: endogenous in cells; host or cells: MKN-45 (CEACAM5-positive); DLD1 (CEACAM5-negative control)
T2 sequence (P06731 35-685 limits assumed): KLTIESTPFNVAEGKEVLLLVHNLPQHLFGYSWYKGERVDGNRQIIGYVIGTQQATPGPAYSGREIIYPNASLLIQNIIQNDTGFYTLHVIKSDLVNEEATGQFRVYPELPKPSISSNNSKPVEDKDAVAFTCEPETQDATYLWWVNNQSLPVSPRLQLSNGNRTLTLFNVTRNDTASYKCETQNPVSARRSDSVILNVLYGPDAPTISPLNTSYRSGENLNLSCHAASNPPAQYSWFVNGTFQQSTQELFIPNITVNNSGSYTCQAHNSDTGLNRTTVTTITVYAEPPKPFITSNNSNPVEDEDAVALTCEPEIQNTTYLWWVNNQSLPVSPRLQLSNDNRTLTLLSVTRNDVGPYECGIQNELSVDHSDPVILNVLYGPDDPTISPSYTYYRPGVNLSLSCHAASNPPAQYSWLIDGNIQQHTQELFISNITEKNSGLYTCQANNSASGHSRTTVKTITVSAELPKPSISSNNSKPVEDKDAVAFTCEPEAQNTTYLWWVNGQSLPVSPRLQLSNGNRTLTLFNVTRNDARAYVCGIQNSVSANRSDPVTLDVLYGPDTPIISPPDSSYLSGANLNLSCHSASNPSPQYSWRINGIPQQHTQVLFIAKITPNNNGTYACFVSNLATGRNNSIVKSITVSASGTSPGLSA
The test can be described thus: Cell staining of CEACAM5-expressing cell line using FITC-labeled CEA-V2122. The class given is cell-based. The method, then:
In order to stain a CEACAM5 expression-positive cancer cell line, FITC labeling was carried out on the cell line, using 100 μg of a purified CEA-V2122 protein. Specifically, labeling was carried out using Fluorescein Labeling Kit—NH2 (DOJINDO LABORATORIES) in accordance with the dosage and administration described in the operating manual included with the kit, and the obtained product was defined to be CEA-V2122-FITC. Specific staining of the CEACAM5 expression-positive cancer cell line is as follows. That is, CEACAM5-positive human stomach cancer-derived MKN-45 cells and CEACAM5-negative human colon cancer-derived DLD1 cells were each seeded on a CELLSTAR, μClear, 96-well plate (Greiner) to a cell density of 2.0×10^4 cells/well, and thereafter, the cells were cultured overnight. Subsequently, a culture solution containing 20 nM CEA-V2122-FITC and 1 μM Hoechist was added to the 96-well plate to a concentration of 100 μL/well, and the obtained mixture was then reacted at 4° C. for 30 minutes. Thereafter, each image was taken using In Cell Analyzer 6000 (GE Healthcare Life Sciences).

Test [5] deals with T3, Recombinant Human CEACAM-5/CD66e Protein (Homo sapiens, UniProt P06731).
T3 construct: purchased R & D SYSTEMS
T3 sequence (P06731 35-676): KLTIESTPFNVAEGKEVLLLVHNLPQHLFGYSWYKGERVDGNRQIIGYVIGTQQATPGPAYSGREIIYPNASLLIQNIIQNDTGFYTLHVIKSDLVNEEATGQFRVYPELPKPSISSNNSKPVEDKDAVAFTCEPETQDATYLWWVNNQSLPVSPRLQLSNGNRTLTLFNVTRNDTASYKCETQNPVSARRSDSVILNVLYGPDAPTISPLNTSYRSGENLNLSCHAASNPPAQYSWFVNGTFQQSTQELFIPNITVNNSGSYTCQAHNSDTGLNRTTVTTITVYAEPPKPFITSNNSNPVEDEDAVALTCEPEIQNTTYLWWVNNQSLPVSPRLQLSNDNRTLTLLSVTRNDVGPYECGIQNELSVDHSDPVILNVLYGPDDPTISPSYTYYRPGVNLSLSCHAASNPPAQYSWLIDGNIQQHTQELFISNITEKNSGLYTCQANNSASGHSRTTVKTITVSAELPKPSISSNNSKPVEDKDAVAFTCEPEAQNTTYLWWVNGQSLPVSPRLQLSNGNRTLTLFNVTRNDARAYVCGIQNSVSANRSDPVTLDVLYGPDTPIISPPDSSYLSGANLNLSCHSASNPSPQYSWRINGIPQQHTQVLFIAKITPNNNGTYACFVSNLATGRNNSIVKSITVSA
The test can be described thus: SPR (Biacore T200) affinity of CEA-V2122 for the antigen CEACAM5. The class given is binding. As to the method: as §3, with “analysis. Using Biacore T200 Evaluation Software, version 2.0, the obtained data were subjected to curve fitting in a bivalent analysis mode, and the following values were obtained: ka1−3.208E+5, and kd1=3.461E-7.” for “analysis.”

[6] abbreviates: CEACAM5 immobilized on Sensor Chip CM5 (279 RU), single-cycle kinetics, bivalent analysis mode.

As to `COC(=O)c1cc2c([nH]1)C(=O)C=C1N(C(=O)c3cc4cc(OC)c(OCCNC(=O)[C@@H](NC(=O)[C@H](C)NC(=O)OCCOCCOCCn5cc(CCC(=O)NCCOCCOCCN(CC(=O)NCCCCNC(=O)CCCC[C@@H]6SC[C@@H]7NC(=N)N[C@@H]76)CC(=O)NCCCCNC(=O)CCCC[C@@H]6SC[C@@H]7NC(=N)N[C@@H]76)nn5)C(C)C)c(OC)c4[nH]3)C[C@H]3CC123` (some centres unmarked) [Compound 5], the “cell growth ratio to control” value was “such a concentration-dependent effect of suppressing the cell growth of the CEACAM5-negative DLD1 cells was not confirmed” in test [1] and “suppression of the cell growth of the CEACAM5-positive MKN45 cells was confirmed in a complex concentration-dependent manner” in test [2].

B1: CEA-V2122 (scFv)
chain: QVKLEQSGAEVVKPGASVKLSCKASGFNIKDSYMHWLRQGPGQRLEWIGWIDPENGDTEYAPKFQGKATFTTDTSANTAYLGLSSLRPEDTAVYYCNEGTPTGPYYFDYWGQGTLVTVSSGGGGSGGGGSGGGGSENVLTQSPSSMSVSVGDRVNIACSASSSVPYMHWLQQKPGKSPKLLIYLTSNLASGVPSRFSGSGSGTDYSLTISSVQPEDAATYYCQQRSSYPLTFGGGTKLEIKGGGGSGGGGAEAGITGTWSDQLGDTFIVTAGADGALTGTYENAVGGAESRYVLTGRYDSAPATDGSGTALGWTVAWKNNSKNAHSATTWSGQYVGGADAKINTQWLLTSGTTNANAWKSTLVGHDTFTKVKPSAASHHHHHH
notes: Fusion of an anti-CEACAM5 scFv with the mutant streptavidin V2122; also called scFv-V2122; CEA-V2122 fusion protein
Consider B1, for which, in test [3], the Kd stood at 1.08 pM.

B2: CEA-V2122-FITC: purified CEA-V2122 protein labeled using Fluorescein Labeling Kit—NH2 (protein)
chain: QVKLEQSGAEVVKPGASVKLSCKASGFNIKDSYMHWLRQGPGQRLEWIGWIDPENGDTEYAPKFQGKATFTTDTSANTAYLGLSSLRPEDTAVYYCNEGTPTGPYYFDYWGQGTLVTVSSGGGGSGGGGSGGGGSENVLTQSPSSMSVSVGDRVNIACSASSSVPYMHWLQQKPGKSPKLLIYLTSNLASGVPSRFSGSGSGTDYSLTISSVQPEDAATYYCQQRSSYPLTFGGGTKLEIKGGGGSGGGGAEAGITGTWSDQLGDTFIVTAGADGALTGTYENAVGGAESRYVLTGRYDSAPATDGSGTALGWTVAWKNNSKNAHSATTWSGQYVGGADAKINTQWLLTSGTTNANAWKSTLVGHDTFTKVKPSAASHHHHHH
For B2, in test [4] (20 nM CEA-V2122-FITC, 4° C. for 30 minutes, CEACAM5-positive MKN-45 vs CEACAM5-negative DLD1 cells, FIG. 5), the “stained cell images (recognition of CEACAM5)” value is on record as “specifically recognizes CEACAM5 on the surface of the cell membrane”. Further, the “time-series stained MKN45 cell images (localisation after binding)” value in test [4] (MKN45 cells, time-series data, FIG. 6) is “the CEACAM5 stays on the surface of the cell membrane”.

B3: CEA-V2122: scFv-type anti-CEACAM5 antibody bound with mutant streptavidin V2122 via an amino acid linker (GGGGSGGGG), SEQ ID NO: 3 (protein)
chain: QVKLEQSGAEVVKPGASVKLSCKASGFNIKDSYMHWLRQGPGQRLEWIGWIDPENGDTEYAPKFQGKATFTTDTSANTAYLGLSSLRPEDTAVYYCNEGTPTGPYYFDYWGQGTLVTVSSGGGGSGGGGSGGGGSENVLTQSPSSMSVSVGDRVNIACSASSSVPYMHWLQQKPGKSPKLLIYLTSNLASGVPSRFSGSGSGTDYSLTISSVQPEDAATYYCQQRSSYPLTFGGGTKLEIKGGGGSGGGGAEAGITGTWSDQLGDTFIVTAGADGALTGTYENAVGGAESRYVLTGRYDSAPATDGSGTALGWTVAWKNNSKNAHSATTWSGQYVGGADAKINTQWLLTSGTTNANAWKSTLVGHDTFTKVKPSAASHHHHHH
As to B3, in test [5] (setting [6]), the ka1 worked out at 3.208E+5 and the kd1 is recorded as 3.461E-7. For the same molecule, the “KD=kd1/ka1” value in test [5] (bivalent analysis, KD=kd1/ka1) was found to be 1.078E−12.
